Substitutions are numbered along the chain they refer to. In names and notes the source's numbering stands.
B1: GDPMK, Nudix GDP-mannose hydrolase from E. coli (product of the gene yffH), wild type (enzyme, UniProt P37128 1-191, looked up)
chain: MTQQITLIKDKILSDNYFTLHNITYDLTRKDGEVIRHKREVYDRGNGATILLYNTKKKTVVLIRQFRVATWVNGNESGQLIESCAGLLDNDEPEVCIRKEAIEETGYEVGEVRKLFELYMSPGGVTELIHFFIAEYSDNQRANAGGGVEDEDIEVLELPFSQALEMIKTGEIRDGKTVLLLNYLQTSHLMD
B2: GDPMK (Escherichia coli K-12; E149A) (protein)
chain: B1 chain with E149A
B3: GDPMK (Escherichia coli K-12; E151A) (protein)
chain: B1 chain with E151A
B4: GDPMK E100A mutant (enzyme, E. coli, UniProt P37128 1-191, looked up)
chain: B1 chain with E100A
B5: GDPMK (Escherichia coli K-12; R44S) (protein)
chain: B1 chain with R44S
B6: GDPMK (Escherichia coli K-12; K176A) (protein)
chain: B1 chain with K176A

Legend:
[1] = target: GDPMK (Escherichia coli, UniProt P37128, E100A); experiment: X-ray crystal structure, […] Å; format: binding; conditions: Mg2+; active site; co-crystallised at pH 8.5
[2] = target: the molecule itself; experiment: SEC
[3] = substrate: Nc1nc2c(ncn2[C@@H]2O[C@H](COP(=O)(O)OP(=O)(O)O[C@H]3O[C@H](CO)[C@@H](O)[C@H](O)[C@@H]3O)[C@@H](O)[C@H]2O)c(=O)[nH]1; experiment: phosphate release; format: biochemical, Escherichia coli; conditions: Mg2+, pH 8.5, 37 °C
[4] = target: the molecule itself; experiment: crystal structure

Sequence of GDPMK (P37128 whole entry E100A): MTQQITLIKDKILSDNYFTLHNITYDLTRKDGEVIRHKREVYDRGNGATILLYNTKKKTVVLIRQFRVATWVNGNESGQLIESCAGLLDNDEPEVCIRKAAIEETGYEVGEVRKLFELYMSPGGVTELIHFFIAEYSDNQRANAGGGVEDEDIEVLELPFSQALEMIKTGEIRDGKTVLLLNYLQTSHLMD

| Molecule | Km [3] [µM] | kcat [3] [s⁻¹] | also measured |
| --- | --- | --- | --- |
| Nc1nc2c(ncn2[C@@H]2O[C@H](COP(=O)(O)OP(=O)(O)O[C@H]3O[C@H](CO)[C@@H](O)[C@H](O)[C@@H]3O)[C@@H](O)[C@H]2O)c(=O)[nH]1 [GDP-mannose] | – | – | X-ray crystal structure, 2.45 Å [1]: The structure of the complex of the GDPMK E100A mutant with GDP-mannose and magnesium |
| B1 | 659 ± 65 | 90.2 ± 6.7 | stoichiometry N [2]: 2 |
| B2 | 555 ± 85 | 80.6 ± 6.3 | – |
| B3 | 594 ± 140 | 21.3 ± 4.6 | – |
| B4 | – | – | binding result [4]: binds |
| B5 | – | 1.69 ± 0.12 | – |
| B6 | – | 0.11 ± 0.04 | – |

Reference: publication PMC3164844 (Proteins, 2011)
